Laboratory results: the supplement of paper PMC10567573

B1: KCNK9 (parent)
chain: DVPDLQSVCSCTCYRSQDYGGRSV

Variants of: B1
Assay: protein stability index of a GFP-peptide fusion (GPS, HEK-293T) (PSI 1-6); higher = more stable
Settings: c terminus: a fixed tail appended
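Also: lentivirally expressed fusions sorted by FACS into six bins by GFP to DsRed ratio, PSI derived from sequencing read proportions per bin multiplied by bin number.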

Going from DVPDLQSVCSCTCYRSQDYVGRSV [G20V] to DVPDLQSVCSCTCYRSQDYTGRSV [G20T], the protein stability index rises from 1.2 to 1.87.

First: DVPDLQSVCSCTCYRSQDYIGRSV [G20I]
Second: DVPDLQSVCSCTCYRSQDYAGRSV [G20A]
The protein stability index of the first is lower: 2.15 for the first, 2.24 for the second.

Compared with DVPDLQSVCSCTCYRSQDYNGRSV [G20N], DVPDLQSVCSCTCYRSQDYKGRSV [G20K] is higher in protein stability index: 2.03 for the first, 2.37 for the second.

Going from DVPDLQSVCSCTCYRSQDYYGRSV [G20Y] to DVPDLQSVCSCTCYRSQDYLGRSV [G20L], the protein stability index falls from 2.8 to 1.67.

DVPDLQSVCSCTCYRSQDYHGRSV [G20H] and DVPDLQSVCSCTCYRSQDYDGRSV [G20D] are the same in protein stability index: 2.88 for the first, 2.88 for the second.

Going from DVPDLQSVCSCTCYRSQDYEGRSV [G20E] to DVPDLQSVCSCTCYRSQDYFGRSV [G20F], the protein stability index falls from 1.97 to 1.35.

Compared with DVPDLQSVCSCTCYRSQDYCGRSV [G20C], DVPDLQSVCSCTCYRSQDYQGRSV [G20Q] is lower in protein stability index: 2.26 for the first, 1.94 for the second.

First: DVPDLQSVCSCTCYRSQDYPGRSV [G20P]
Second: DVPDLQSVCSCTCSRSQDYGGRSV [Y14S]
The protein stability index of the first is lower: 2.03 for the first, 2.29 for the second.

Going from DVPDLQSVCSCTCNRSQDYGGRSV [Y14N] to DVPDLQSVCSCTCKRSQDYGGRSV [Y14K], the protein stability index rises from 2.23 to 2.27.

Going from DVPDLQSVCSCTCPRSQDYGGRSV [Y14P] to DVPDLQSVCSCTCFRSQDYGGRSV [Y14F], the protein stability index falls from 2.71 to 2.1.

First: DVPDLQSVCSCTCIRSQDYGGRSV [Y14I]
Second: DVPDLQSVCSCTCQRSQDYGGRSV [Y14Q]
The protein stability index of the first is higher: 1.83 for the first, 1.53 for the second.

Compared with DVPDLQSVCSCTCVRSQDYGGRSV [Y14V], DVPDLQSVCSCTCGRSQDYGGRSV [Y14G] is higher in protein stability index: 2.38 for the first, 2.42 for the second.

First: DVPDLQSVCSCTCRRSQDYGGRSV [Y14R]
Second: DVPDLQSVCSCTCWRSQDYGGRSV [Y14W]
The protein stability index of the first is lower: 2.37 for the first, 3.24 for the second.

Compared with DVPDLQSVCSCTCDRSQDYGGRSV [Y14D], DVPDLQSVCSCTCMRSQDYGGRSV [Y14M] is higher in protein stability index: 1.92 for the first, 3.61 for the second.

First: DVPDLQSVCSCTCHRSQDYGGRSV [Y14H]
Second: DVPDLQSVCSCTCCRSQDYGGRSV [Y14C]
The protein stability index of the first is higher: 2.55 for the first, 1.75 for the second.

Going from DVPDLQSVCSCTCARSQDYGGRSV [Y14A] to DVPDLQSVCSCTCLRSQDYGGRSV [Y14L], the protein stability index falls from 1.91 to 1.47.

Going from DVPDLQSVCSCTCTRSQDYGGRSV [Y14T] to DVPDLQSVCSCTVYRSQDYGGRSV [C13V], the protein stability index rises from 1.5 to 2.31.

Going from DVPDLQSVCSCTDYRSQDYGGRSV [C13D] to DVPDLQSVCSCTAYRSQDYGGRSV [C13A], the protein stability index rises from 2.12 to 2.28.

Going from DVPDLQSVCSCTKYRSQDYGGRSV [C13K] to DVPDLQSVCSCTGYRSQDYGGRSV [C13G], the protein stability index rises from 1.82 to 3.14.

Going from DVPDLQSVCSCTTYRSQDYGGRSV [C13T] to DVPDLQSVCSCTWYRSQDYGGRSV [C13W], the protein stability index falls from 3 to 1.75.

Compared with DVPDLQSVCSCTIYRSQDYGGRSV [C13I], DVPDLQSVCSCTNYRSQDYGGRSV [C13N] is lower in protein stability index: 2.85 for the first, 2.53 for the second.

Compared with DVPDLQSVCSCTMYRSQDYGGRSV [C13M], DVPDLQSVCSCTRYRSQDYGGRSV [C13R] is higher in protein stability index: 1.73 for the first, 2.19 for the second.

Going from DVPDLQSVCSCTYYRSQDYGGRSV [C13Y] to DVPDLQSVCSCTEYRSQDYGGRSV [C13E], the protein stability index rises from 1.94 to 2.85.

First: DVPDLQSVCSCTPYRSQDYGGRSV [C13P]
Second: DVPDLQSVCSCTLYRSQDYGGRSV [C13L]
The protein stability index of the first is higher: 2.81 for the first, 1.97 for the second.

Compared with DVPDLQSVCSCTQYRSQDYGGRSV [C13Q], DVPDLQSVCSCTSYRSQDYGGRSV [C13S] is higher in protein stability index: 2.69 for the first, 2.79 for the second.

Compared with DVPDLQSVCSCTFYRSQDYGGRSV [C13F], DVPDLQSVCSCTCYRSQDVGGRSV [Y19V] is higher in protein stability index: 1.14 for the first, 1.66 for the second.

First: DVPDLQSVCSCTCYRSQDIGGRSV [Y19I]
Second: DVPDLQSVCSCTCYRSQDHGGRSV [Y19H]
The protein stability index of the first is lower: 2.18 for the first, 2.27 for the second.

First: DVPDLQSVCSCTCYRSQDGGGRSV [Y19G]
Second: DVPDLQSVCSCTCYRSQDCGGRSV [Y19C]
The protein stability index of the first is lower: 1.58 for the first, 1.88 for the second.

Going from DVPDLQSVCSCTCYRSQDRGGRSV [Y19R] to DVPDLQSVCSCTCYRSQDEGGRSV [Y19E], the protein stability index falls from 2.08 to 2.02.

Compared with DVPDLQSVCSCTCYRSQDFGGRSV [Y19F], DVPDLQSVCSCTCYRSQDDGGRSV [Y19D] is higher in protein stability index: 2.25 for the first, 2.41 for the second.

Compared with DVPDLQSVCSCTCYRSQDPGGRSV [Y19P], DVPDLQSVCSCTCYRSQDMGGRSV [Y19M] is lower in protein stability index: 1.86 for the first, 1.83 for the second.

Compared with DVPDLQSVCSCTCYRSQDAGGRSV [Y19A], DVPDLQSVCSCTCYRSQDKGGRSV [Y19K] is higher in protein stability index: 1.88 for the first, 2.1 for the second.

First: DVPDLQSVCSCTCYRSQDTGGRSV [Y19T]
Second: DVPDLQSVCSCTCYRSQDSGGRSV [Y19S]
The protein stability index of the first is higher: 2.64 for the first, 1.81 for the second.

First: DVPDLQSVCSCTCYRSQDQGGRSV [Y19Q]
Second: DVPDLQSVCSCTCYRSQDNGGRSV [Y19N]
The protein stability index of the first is higher: 2.44 for the first, 1.71 for the second.

First: DVPDLQSVCSCTCYRSQDYGDRSV [G21D]
Second: DVPDLQSVCSCTCYRSQDYGHRSV [G21H]
The protein stability index of the first is higher: 2.22 for the first, 1.9 for the second.

Compared with DVPDLQSVCSCTCYRSQDYGFRSV [G21F], DVPDLQSVCSCTCYRSQDYGKRSV [G21K] is higher in protein stability index: 1.81 for the first, 1.9 for the second.

First: DVPDLQSVCSCTCYRSQDYGRRSV [G21R]
Second: DVPDLQSVCSCTCYRSQDYGLRSV [G21L]
The protein stability index of the first is higher: 1.62 for the first, 1 for the second.

First: DVPDLQSVCSCTCYRSQDYGQRSV [G21Q]
Second: DVPDLQSVCSCTCYRSQDYGARSV [G21A]
The protein stability index of the first is lower: 1.4 for the first, 1.85 for the second.

Compared with DVPDLQSVCSCTCYRSQDYGPRSV [G21P], DVPDLQSVCSPTCYRSQDYGGRSV [C11P] is higher in protein stability index: 2.06 for the first, 3.8 for the second.

Going from DVPDLQSVCSVTCYRSQDYGGRSV [C11V] to DVPDLQSVCSITCYRSQDYGGRSV [C11I], the protein stability index falls from 2.46 to 2.39.

Going from DVPDLQSVCSQTCYRSQDYGGRSV [C11Q] to DVPDLQSVCSTTCYRSQDYGGRSV [C11T], the protein stability index rises from 2.59 to 2.81.

Compared with DVPDLQSVCSHTCYRSQDYGGRSV [C11H], DVPDLQSVCSMTCYRSQDYGGRSV [C11M] is higher in protein stability index: 2.02 for the first, 2.13 for the second.

Going from DVPDLQSVCSETCYRSQDYGGRSV [C11E] to DVPDLQSVCSRTCYRSQDYGGRSV [C11R], the protein stability index falls from 4.65 to 2.34.

Compared with DVPDLQSVCSFTCYRSQDYGGRSV [C11F], DVPDLQSVCSDTCYRSQDYGGRSV [C11D] is higher in protein stability index: 2.06 for the first, 4.15 for the second.

Compared with DVPDLQSVCSLTCYRSQDYGGRSV [C11L], DVPDLQSVCSWTCYRSQDYGGRSV [C11W] is higher in protein stability index: 2.52 for the first, 2.59 for the second.

First: DVPDLQSVCSKTCYRSQDYGGRSV [C11K]
Second: DVPDLQSVCSSTCYRSQDYGGRSV [C11S]
The protein stability index of the first is lower: 3.05 for the first, 3.3 for the second.

Compared with DVPDLQSVCSNTCYRSQDYGGRSV [C11N], DVPDLQSVCSYTCYRSQDYGGRSV [C11Y] is higher in protein stability index: 3.21 for the first, 3.6 for the second.
